Test results as given in patent publication US20080175829A1, “METHOD FOR INDUCING NEURAL DIFFERENTIATION” (priority 2004, published 2008).

How the values were obtained:
[1] = system: size-sieved stem cells (SSCs) derived from human bone marrow; experiment: Morphology of SSCs (phase contrast), neuronal-like transformation; type: cell-based; settings: for morphology of neurites/processes of SSCs: ITS medium, 7 days, GDNF 50 ng/ml, PACAP 20 ng/ml, dbcAMP 0.1 mM, compared to ITS medium alone
Procedure: SSCs were isolated from human bone marrow as described previously (Hung et al. (2002)). In brief, human bone marrow was aspirated from the iliac crest of normal donors, and then washed twice with phosphate-buffered saline (PBS). The cells were loaded into 1.073 g/ml Percoll solution (Sigma®), and then centrifuged at 900 g for 30 min. The mononuclear cells (MNCs) were collected from the interface, and plated at the density of 1×10^6 MNCs/cm^2 onto a 10-cm plastic culture dish comprised of an inserted sieve with 3-μm pores (Transwell System, Corning®). The cells were cultured in Dulbecco's modified Eagle's medium-low glucose (DMFM-LG) containing 10% fetal bovine serum (FBS), 100 U/ml penicillin, […] streptomycin, and 0.25 μg/ml amphotericin B (serum-containing medium). […] However, the cells that passed through the sieve were small, polygonal and had less renewal. SSCs were then harvested with 0.25% trypsin and 1 mM EDTA, and replated on 10-cm culture petri dishes. When SSCs were grown in serum containing medium to 80% confluence, the cells were replated onto 35-mm culture petri dishes at the density of 1×10^5 cells/dish for Western Blotting, or onto 8-well chambers at the density of 1×10^4 cells/well for immunofluorescence.
[…] ITS medium consisted of 56% DMEM-LG (Life Biotech®), 40% MCDB-201 medium (Sigma®), and 1×ITS medium supplement (Sigma®) contained 1 mg/ml insulin, 0.55 mg/ml human transferrin, 0.5 μg/ml sodium selenite, 10 nM dexamethasone (Sigma®), and 10 μM ascorbic acid (Sigma®)). […] However, when SSCs were cultured in serum free medium with ITS supplement, these cells adhered well onto cultured plates and extended their processes. Therefore, treatments were performed in ITS medium.

[2] = system: size-sieved stem cells (SSCs) derived from human bone marrow; experiment: Western Blotting of neuron-specific markers (NF-L, NF-H) and α-tubulin in SSCs; type: cell-based; settings: 7 days in ITS medium; for expression of NF-L protein in SSCs: compared to ITS medium alone
Procedure: This is to study the effects of GDNF, PACAP and dbcAMP on neuronal differentiation of SSC in ITS medium. The levels of neuron-specific markers (NF-L and NF-H) in the SSCs were examined by Western Blotting. The cells were replated at the density of 1×10^5 cells per 35 mm petri dish and cultured for 7 days in ITS medium with GDNF, PACAP or dbcAMP at the distinct concentrations. Cells were harvested and gently homogenized on ice using PBS containing 1% SDS, 1 mM phenylmethyl-sulfonylfluoride (PMSF), 1 mM EDTA, […], […], and […]. Protein concentrations were determined using a Bio-Rad® DC kit. Ten μg of total protein was loaded onto 7.5% SDS-PAGE, and transferred to a nitrocellulous membrane. NF-L (70 kDa) and NF-H (200 kDa) were identified by incubating the membrane with anti-NF antibodies (Chemicon®) overnight at 4° C., followed by horseradish peroxidase-conjugated secondary antibodies and enhanced chemiluminescence solution (NEN LifeScience®).

[3] = system: size-sieved stem cells (SSCs) derived from human bone marrow; experiment: Immunofluorescence staining for α-internexin in SSCs; type: cell-based; settings: 7 days in ITS medium; GDNF 50 ng/ml, PACAP 20 ng/ml, dbcAMP 0.1 mM
Procedure: Immunofluorescence staining for another neuronal intermediate filament protein, α-internexin (FIG. 5), was performed using antibodies against α-internexin (1:200; Chemicon®).

[4] = system: size-sieved stem cells (SSCs) derived from human bone marrow; experiment: Immunofluorescence for synapsin-1 in SSCs; type: cell-based; settings: 7 days in ITS medium; 50 ng/ml GDNF or 20 nM PACAP
Procedure: To detect the morphological change of the SSCs that had been treated with 50 ng/ml GDNF or 20 nM PACAP in ITS medium for 7 days, the SSCs were fixed in PBS-containing 4% paraformaldehyde for 10 minutes. Examination of immunofluorescence for synapsin-1, a synapse vesicle protein, was performed by incubating SSCs with anti-synapsin-1 antibodies (1:200; BD Biosciences®) in PBS-containing 0.1% Triton X-100 and 5% horse serum overnight at 4° C., followed by biotinylated secondary antibodies (1:200; Vector®) and FITC-avidin (1:200; Vector®).

[5] = system: rats with spinal cord injury (SCI); settings: intraspinal injection; cited from earlier work

Row | Molecule | morphology of neurites/processes of SSCs [1] | level of α-tubulin in SSCs [2] | expression of NF-L protein in SSCs [2] | process branching/elongation of SSCs (α-internexin staining) [3] | processes of synapsin-1 positive cells [4] | hindlimb recovery [5] | response of SSCs in DMEM-LG medium without serum ([1]; DMEM-LG medium without serum (no ITS supplement)) | NF-H levels in SSCs [2]
1 | CCCC(=O)Nc1ncnc2c1ncn2[C@@H]1O[C@@H]2COP(=O)(O)O[C@H]2[C@H]1OC(=O)CCC [dbcAMP, dibutyryl cAMP, reference compound] | induced highly branched, elongated, and delicate processes | increased | increased | more extensive branched, elongated processes |  |  |  | 
2 | GDNF: glial cell line-derived neurotrophic factor, a potent survival factor for many CNS neuronal cell populations (R&D) (protein, UniProt P39905 78-211, looked up) Glial cell line-derived …: SPDKQMAVLPRRERNRQAAAANPENSRGKGRRGQRGKNRGCVLTAIHLNVTDLGLGYETKEELIFRYCSGSCDAAETTYDKILKNLSRNRRLVSDKVGQACCRPIAFDDDLSFLDDNLVYHILRKHSAKRCGCI | further improved the extension of neurites | induces | stimulatory effect | could induce process branching of SSCs to some extent | extended processes with branching | improved hindlimb recovery | respond poorly | less effect
